From the Immune Epitope Database (IEDB)

How the values were obtained:
HLA-C*04:01 = assay: IEDB peptide-MHC binding, purified MHC/direct/fluorescence; filed as Kd, often an IC50 or EC50 that approximates it; ≥ and ≤ were set here for values at or beyond the usual limits of such assays
HLA-A*31:01 = assay: as above
HLA-A*68:02 = assay: as above; conditions: source organism: Influenza A virus (A/Hong Kong/516/97(H5N1))
HLA-A*11:01 = assay: as above
HLA-B*15:01 = assay: as above
HLA-B*58:01 = assay: as above
HLA-A*01:01 = assay: as above
HLA-A*26:01 = assay: as above
HLA-B*07:02 = assay: as above
HLA-B*57:01 = assay: as above; conditions: source organism: Influenza A virus (A/Hong Kong/516/97(H5N1))
HLA-A*03:01 = assay: as above
HLA-A*24:02 [1] = assay: as above
HLA-B*40:01 = assay: as above
HLA-B*08:01 = assay: as above
HLA-A*69:01 = assay: as above
HLA-B*18:01 = assay: as above
HLA-B*44:02 = assay: as above; conditions: source organism: Influenza A virus (A/Hong Kong/516/97(H5N1))
HLA-A*02:01 = assay: as above
HLA-B*27:05 = assay: as above
HLA-A*24:03 = assay: as above; conditions: source organism: Influenza A virus (A/Hong Kong/516/97(H5N1))
HLA-A*02:06 = assay: IEDB peptide-MHC binding, purified MHC/competitive/fluorescence; filed as Kd, often an IC50 or EC50 that approximates it; ≥ and ≤ were set here for values at or beyond the usual limits of such assays; conditions: source organism: Influenza A virus (A/Fort Monmouth/1/1947-mouse adapted(H1N1))
HLA-B*15:17 = assay: as above; conditions: source organism: Influenza A virus (A/Fort Monmouth/1/1947-mouse adapted(H1N1))
HLA-A*26:02 = assay: as above; conditions: source organism: Influenza A virus (A/Fort Monmouth/1/1947-mouse adapted(H1N1))
HLA-B*46:01 = assay: IEDB peptide-MHC binding, purified MHC/direct/fluorescence; filed as Kd, often an IC50 or EC50 that approximates it; ≥ and ≤ were set here for values at or beyond the usual limits of such assays; conditions: source organism: Influenza A virus (A/Switzerland/8808/2002(H1N1))
HLA-B*08:02 = assay: as above; conditions: source organism: Influenza A virus H3N2
HLA-A*24:02 [2] = assay: IEDB peptide-MHC binding, purified MHC/competitive/fluorescence; filed as Kd, often an IC50 or EC50 that approximates it; ≥ and ≤ were set here for values at or beyond the usual limits of such assays; conditions: source organism: Shigella flexneri 5 str. 8401
[3] = source organism: Influenza A virus (A/Hong Kong/516/97(H5N1))
[4] = source organism: Influenza A virus (A/Puerto Rico/8/34/Mount Sinai(H1N1))
[5] = source organism: Influenza A virus (A/Switzerland/8808/2002(H1N1))

STEFIPNLF
Kd (HLA-C*04:01; source organism: human gammaherpesvirus 4): ≥ 20 µM

SYINRTGTF
Kd (HLA-A*31:01; [3]): ≥ 20 µM
Kd (HLA-A*68:02): ≥ 20 µM
Kd (HLA-A*11:01; [3]): ≥ 20 µM
Kd (HLA-B*15:01; [4]): 0.584 µM
Kd (HLA-B*58:01; [3]): ≥ 20 µM
Kd (HLA-A*01:01; [3]): ≥ 20 µM
Kd (HLA-A*26:01; [3]): ≥ 20 µM
Kd (HLA-B*07:02; [3]): ≥ 20 µM
Kd (HLA-B*57:01): ≥ 20 µM
Kd (HLA-A*03:01; [3]): ≥ 20 µM
Kd (HLA-A*24:02 [1]; [3]): 0.0054 µM
Kd (HLA-B*40:01; [3]): ≥ 20 µM
Kd (HLA-B*08:01; [3]): ≥ 20 µM
Kd (HLA-A*69:01; [3]): ≥ 20 µM
Kd (HLA-B*18:01; [3]): ≥ 20 µM
Kd (HLA-B*44:02): ≥ 20 µM
Kd (HLA-A*02:01; [3]): ≥ 20 µM
Kd (HLA-B*27:05; [3]): ≥ 20 µM
Kd (HLA-A*24:03): 0.0018 µM
Kd (HLA-A*02:06): ≥ 20 µM
Kd (HLA-B*15:17): 0.477 µM
Kd (HLA-A*26:02): 3.67 µM

VPAQNAIST
Kd (HLA-A*31:01; [5]): ≥ 20 µM
Kd (HLA-A*11:01; [5]): ≥ 20 µM
Kd (HLA-B*15:01; [5]): ≥ 20 µM
Kd (HLA-B*58:01; [5]): ≥ 20 µM
Kd (HLA-A*01:01; [5]): ≥ 20 µM
Kd (HLA-A*26:01; source organism: Influenza A virus H3N2): ≥ 20 µM
Kd (HLA-B*07:02; [4]): 0.063 µM
Kd (HLA-A*03:01; [5]): ≥ 20 µM
Kd (HLA-A*24:02 [1]; [5]): ≥ 20 µM
Kd (HLA-B*40:01; [5]): ≥ 20 µM
Kd (HLA-B*46:01): ≥ 20 µM
Kd (HLA-B*08:02): ≥ 20 µM
Kd (HLA-B*08:01; [5]): ≥ 20 µM
Kd (HLA-A*69:01; [5]): ≥ 20 µM
Kd (HLA-B*18:01; [5]): ≥ 20 µM
Kd (HLA-A*02:01; [5]): ≥ 20 µM
Kd (HLA-B*27:05; [5]): ≥ 20 µM

VSITNPFLF
Kd (HLA-C*04:01; source organism: Shigella flexneri 5 str. 8401): ≥ 20 µM
Kd (HLA-A*24:02 [2]): 0.0057 µM
